This is an account of results in PMC6635492, “Structural basis for the adsorption of a single-stranded RNA bacteriophage” (Nature Communications, 2019).

This series deals with the molecule itself. The experiment in a line: cryo-EM structure; single-particle cryo-EM of MS2 virions incubated with purified F-pili for 30 min at 37 °C; grids tilted 0°, 15° or 30°; maps at 5.0 Å (whole complex), 6.2 Å (F-pilus/Mat, local mask) and 5.6 to 7.3 Å (three classes).

B1: F-pilin, subunit of the E. coli F-pilus encoded by the pOX38 plasmid (natural protein, E. coli (pOX38 plasmid), UniProt P04737 52-121, looked up)
chain: AGSSGQDLMASGNTTVKATFGKDSSVVKWVVLAEVLVGAVMYMMTKNVKFLAGFAIISVFIAVGMAVVGL
notes: F-pilin of the pOX38 (F) plasmid, mature pilin; its first five residues are printed as AGSSG; assembled as a five-start helical filament with one phospholipid per pilin; initial model PDB 5LER. numbers count on: the mature protein; Stood in the assay as the assembled filament (stoichiometric pilin-phospholipid complex); the number of subunits is not fixed; source: on the cells for cryo-ET
With B1, the binding result is listed as “binds”.
